Experimental data taken from US20150152166A1 (THERACLONE SCIENCES, published 2015).

T1: CMV gp116 epitope AD2 site peptide SHRANETIYNTTLKYGDTTGTNTTK (CMV (human cytomegalovirus), not fully specified)
T1 construct: Synthetic polypeptide corresponding to the AD2 site of gp116 (glycoprotein B); A biotinylated form was used to select B cells; also called CMV gp116 AD2 peptide
T1 peptide: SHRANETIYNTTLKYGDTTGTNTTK

B1: 2N9 human anti-CMV antibody (antibody, V domains shown)
VH: QVQLVESGGGVVQPGRSLRLSCAASGFTFSSNGIHWVRQAPGKGLDWVAVISSDANDKQYADSVKGRFTISRDNSKNMVYLQMNSLRVEDTAVYFCARDGTCSGGNCYSGLIDYWGRGILVTVSS
VL: EIVLTQSPATLSLSPGERATLSCRASQSVGGYLAWYQQKPGQAPRLLIYDASIRATGIPARFSGSGSGTDFTLTISSLEPEDFAVYYCHQRSNWPPLTFGGGTKVDIKR
notes: Recombinant human IgG, gamma heavy and kappa light chain; (MDMR); If the listing entry has two more residues, the range shifts by 2; also called TCN-202; mAb C-2N9
B2: 5P9 human anti-CMV antibody (antibody, V domains shown)
VH: QVQLVESGGGVIQPGRSLRLSCVASKFIFSNHGIHWVRQAPGKGLEWVAVISKDGTNAHYADSVRGRFSISRDNSKDTVFLEMRSLRPEDTAVYYCAREGRCIEEKCYSGQIDYWGQGSLVTVSS
VL: EILLTQSPATLSLSPGERATLSCRASQSVGRYMAWYQQRPGQAPRLLIYDASIRATGIPARFSGSGSGTDFTLTISSLQTEDFAIYYCQQRSSWPPLTFGGGTKVEIKR
notes: Recombinant human IgG, gamma heavy and kappa light chain; also called mAb E-5P9
B3: 4P12 human anti-CMV antibody (antibody, V domains shown)
VH: QVQLVESGGGVIQPGRSLRLSCVASKFIFSNHGIHWVRQAPGKGLEWVAVISKDGTNAHYADSVRGRFSISRDNSKDTVFLEMRSLRPEDTAVYYCAREGRCIEENCYSGQIDYWGQGSLVTVSS
VL: EILLTQSPATLSLSPGERATLSCRASQSVGRYMAWYQQRPGQAPRLLIYDASIRATGIPARFSGSGSGTDFTLTISSLQPEDFAIYYCQQRSSWPPLTFGGGTKVEIKR
notes: Recombinant human IgG, gamma heavy and kappa light chain; also called mAb D-4P12
B4: 2F10 human anti-CMV antibody (antibody, V domains shown)
VH: QVHLVESGGGVVQPGRALRLSCAATGFTFSNHGIHWVRQAPGKGLEWLAVISSDGDDDRYADSVKGRFSVSRDNSKNTVHLQMNGLRPDDTAIYFCARDGRCGEPKCYSGLPDYWGRGTLVTVSS
VL: EIVLTQSPATLSLSPGDRATLSCRASQSVGGYLAWYQQKPGQAPRLLLYDASNRATGIPARFSGSGSGTDFTLTISSLEPEDFALYYCLQRNTWPPLTFGGGTKVEIKR
notes: Recombinant human IgG, gamma heavy and kappa light chain, made by transient transfection of 293 cells; also called mAb A-2F10

What was measured:
[1] = target: T1, CMV gp116 epitope AD2 site peptide …; experiment: kinetic affinity measurement, method not stated; antigen taken as CMV gp116 AD2 peptide
[2] = target: T1, CMV gp116 epitope AD2 site peptide …; experiment: kinetic affinity measurement, method not stated; antigen taken as AD2 peptide; same value as r13, table re-sorted by koff
[3] = target: GPCMV gB (glycoprotein B of guinea pig CMV strain V545/82) (guinea pig cytomegalovirus); experiment: cell-based or functional assay
[4] = target: T1, CMV gp116 epitope AD2 site peptide …; experiment: kinetic affinity measurement, method not stated; antigen taken as AD2 peptide; same value as r9, table re-sorted by koff
[5] = target: T1, CMV gp116 epitope AD2 site peptide …; experiment: kinetic affinity measurement, method not stated; antigen taken as AD2 peptide; same value as r12, table re-sorted by koff
[6] = target: T1, CMV gp116 epitope AD2 site peptide …; experiment: kinetic affinity measurement, method not stated; antigen taken as AD2 peptide; same value as r8, table re-sorted by koff

Row | Binder | Kd [1] [nM] | koff [1] [s⁻¹] | kon [1] [M⁻¹ s⁻¹] | Kd [2] [nM] | koff [2] [s⁻¹] | kon [2] [M⁻¹ s⁻¹] | neutralization of GPCMV V545/82 entry into JH4 cells; highest concentration tested without effect [3] [ng/mL] | Kd [4] [nM] | koff [4] [s⁻¹] | kon [4] [M⁻¹ s⁻¹] | Kd [5] [nM] | koff [5] [s⁻¹] | kon [5] [M⁻¹ s⁻¹] | Kd [6] [nM] | koff [6] [s⁻¹] | kon [6] [M⁻¹ s⁻¹]
1 | B1 | 11.6 | 0.03 | 2.6e+06 | 11.6 | 0.03 | 2.6e+06 | > 300 |  |  |  |  |  |  |  |  | 
2 | B2 | 4.9 | 0.00121 | 245000 |  |  |  | > 300 | 4.9 | 0.00121 | 245000 |  |  |  |  |  | 
3 | B3 | 10.9 | 0.0019 | 175000 |  |  |  | > 300 |  |  |  | 10.9 | 0.0019 | 175000 |  |  | 
4 | B4 | 1.98 | 0.00111 | 562000 |  |  |  | > 300 |  |  |  |  |  |  | 1.98 | 0.00111 | 562000
